No end group written: not given here.

We go through 15 molecules from US20060073152A1 (Genentech, published 2006).

Assay [1] has as its target T1, rabbit serum albumin (rabbit, UniProt P49065 25-608).
T1 construct: also called Rabbit SA; BuSA
As to the kind of experiment: phage binding.

The target of assay [2] is T2, mouse serum albumin (mouse, UniProt P07724 25-608).
T2 construct: also called Mouse SA; MuSA
Description: SA08 peptide competition.

The target of assay [3] is T1, rabbit serum albumin. As to the kind of experiment: SA08 peptide competition.
Assay [4] has as its target T3, rat serum albumin (rat, UniProt P02770 25-608).
T3 construct: also called Rat SA; RSA
As to the kind of experiment: SPR (BIAcore), albumin on the chip. On the technique in general: In SPR one partner is held on a chip, and binding of the other changes the refractive index at the surface.

In assay [5] the target is T1, rabbit serum albumin. As to the kind of experiment: SPR (BIAcore), albumin on the chip.
In assay [6] the target is T4, human serum albumin (human, UniProt P02768 25-609).
T4 construct: also called Human SA; HuSA
As to the kind of experiment: SPR (BIAcore), albumin on the chip.

Assay [7] addresses T1, rabbit serum albumin. As to the kind of experiment: peptide competition; head prints RSA, read as rabbit.
Assay [8] deals with T3, rat serum albumin. Description: phage binding.
Assay [9] concerns the target T4, human serum albumin. As to the kind of experiment: phage binding.
Assay [10] deals with T2, mouse serum albumin. As to the kind of experiment: peptide competition for albumin.
The target of assay [11] is T3, rat serum albumin. As to the kind of experiment: peptide competition for albumin.
Assay [12] has as its target T1, rabbit serum albumin. As to the kind of experiment: peptide competition for albumin.

T3 sequence (P02770 25-608 limits assumed): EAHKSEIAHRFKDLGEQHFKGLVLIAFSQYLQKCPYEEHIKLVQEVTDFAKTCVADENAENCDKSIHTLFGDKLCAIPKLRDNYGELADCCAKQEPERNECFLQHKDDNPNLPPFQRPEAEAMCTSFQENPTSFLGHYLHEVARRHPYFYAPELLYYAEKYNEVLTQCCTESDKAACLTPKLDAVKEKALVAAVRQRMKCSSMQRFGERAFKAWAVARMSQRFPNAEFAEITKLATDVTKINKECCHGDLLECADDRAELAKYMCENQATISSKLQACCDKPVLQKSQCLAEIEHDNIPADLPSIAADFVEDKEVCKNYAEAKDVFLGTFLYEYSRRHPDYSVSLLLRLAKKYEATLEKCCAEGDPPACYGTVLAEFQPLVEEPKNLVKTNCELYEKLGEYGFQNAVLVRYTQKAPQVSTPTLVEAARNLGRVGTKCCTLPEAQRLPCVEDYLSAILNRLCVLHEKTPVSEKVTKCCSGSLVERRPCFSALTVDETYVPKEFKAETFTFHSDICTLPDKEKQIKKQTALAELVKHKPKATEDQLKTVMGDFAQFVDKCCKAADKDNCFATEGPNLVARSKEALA
T2 sequence (P07724 25-608 limits assumed): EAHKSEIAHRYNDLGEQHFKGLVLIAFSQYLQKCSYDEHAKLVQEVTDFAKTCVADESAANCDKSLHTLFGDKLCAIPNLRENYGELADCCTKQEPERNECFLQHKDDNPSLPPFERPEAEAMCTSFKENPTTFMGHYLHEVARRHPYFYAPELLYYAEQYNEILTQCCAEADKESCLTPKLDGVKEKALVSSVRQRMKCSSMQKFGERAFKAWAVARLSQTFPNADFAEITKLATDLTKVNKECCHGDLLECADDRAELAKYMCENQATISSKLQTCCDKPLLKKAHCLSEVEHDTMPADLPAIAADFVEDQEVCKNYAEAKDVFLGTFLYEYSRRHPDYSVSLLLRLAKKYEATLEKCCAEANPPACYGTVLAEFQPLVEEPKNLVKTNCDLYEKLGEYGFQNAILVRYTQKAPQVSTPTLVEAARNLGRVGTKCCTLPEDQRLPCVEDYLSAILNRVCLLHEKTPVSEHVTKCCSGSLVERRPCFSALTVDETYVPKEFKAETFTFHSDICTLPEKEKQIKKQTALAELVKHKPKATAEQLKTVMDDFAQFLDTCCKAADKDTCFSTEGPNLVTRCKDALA
T1 sequence (P49065 25-608 limits assumed): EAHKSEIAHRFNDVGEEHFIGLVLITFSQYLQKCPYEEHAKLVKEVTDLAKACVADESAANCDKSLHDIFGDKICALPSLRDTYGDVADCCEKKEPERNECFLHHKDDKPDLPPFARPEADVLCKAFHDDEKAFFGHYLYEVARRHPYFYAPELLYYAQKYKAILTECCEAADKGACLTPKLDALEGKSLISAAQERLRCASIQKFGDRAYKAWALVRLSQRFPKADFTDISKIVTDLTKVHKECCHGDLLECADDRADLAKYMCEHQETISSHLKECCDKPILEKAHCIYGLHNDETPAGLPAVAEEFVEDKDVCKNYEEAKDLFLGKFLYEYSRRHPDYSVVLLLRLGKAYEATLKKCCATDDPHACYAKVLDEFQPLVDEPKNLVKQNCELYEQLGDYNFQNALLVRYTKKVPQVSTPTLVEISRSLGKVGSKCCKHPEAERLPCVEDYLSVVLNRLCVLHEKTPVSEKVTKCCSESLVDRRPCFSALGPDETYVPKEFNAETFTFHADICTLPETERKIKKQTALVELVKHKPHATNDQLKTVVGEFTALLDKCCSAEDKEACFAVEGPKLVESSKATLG

B1: BB (peptide)
peptide: MDELAFYCGIWECLMHQEQK
notes: on phage
Consider B1, for which, in the assay with rabbit serum albumin [1], the binding result is listed as “binds”.

B2: SA15 (peptide)
peptide: GEWWEDICLPRWGCLWEEED-NH2
modifications: not fully specified (bridges); printed as GEWWEDICLPRWGCLWEEED-NH2; cysteine pairing not given here
notes: free peptide
As usually defined, the IC50 is the concentration at which inhibition is half-maximal. Higher therefore signals weaker potency. What is called Kd is a measure of binding affinity in units of concentration. Read a high Kd as a looser complex. B2: the IC50 amounted to 5 nM in the assay with mouse serum albumin [2] and 13 nM in the assay with rabbit serum albumin [3]. In addition, the equilibrium dissociation constant (Kd) in the assay with rat serum albumin [4] was found to be 150 nM; with rabbit serum albumin [5], 65 nM; with human serum albumin [6] it was 878 nM.

B3: SA21 (peptide)
peptide: Ac-RLIEDICLPRWGCLWEDD-NH2
modifications: cysteine pairing not given here
notes: free peptide
As to B3, the half-inhibitory concentration (IC50) worked out at 270 nM in the assay with rabbit serum albumin [7], 7 nM with mouse serum albumin [2] and 270 nM with rabbit serum albumin [3]. The molecule also returned a Kd in the assay with rabbit serum albumin [5] of 320 nM.

B4: RB (peptide)
peptide: QRQMVDFCLPQWGCLWGDGF
notes: on phage; also called Library RB
As to B4, the binding result in the assay with rat serum albumin [8], with rabbit serum albumin [1] and in the assay with human serum albumin [9] was “binds” throughout.

B5: SA08 (peptide)
peptide: Ac-QGLIGDICLPRWGCLWGDSVK-NH2
modifications: cysteine pairing not given here
notes: free peptide
Consider B5, for which the IC50 with mouse serum albumin [10] came to 10 nM; with rat serum albumin [11], 68 nM; in the assay with rabbit serum albumin [12] it was 63 nM; in the assay with mouse serum albumin [2], 12 nM. Moreover, the Kd with rat serum albumin [4] amounted to 158 nM; in the assay with rabbit serum albumin [5] it was 108 nM; with human serum albumin [6] it was 858 nM.

B6: BA (peptide)
peptide: GENWCDSTLMAYDLCGQVNM
notes: on phage; also called Library BA
For B6, in the assay with rabbit serum albumin [1], the binding result is recorded as “binds”.

B7: RE (peptide)
peptide: CGCVDVSDWDCWSECLWSHGA
notes: on phage
Consider B7, for which the binding result with rat serum albumin [8] is listed as “binds”.

B8: RA (peptide)
peptide: RNEDPCVVLLEMGLECWEGV
modifications: not fully specified (bridges); cysteine pairing not given here; also: phage-displayed
notes: on phage
Take B8: in the assay with rat serum albumin [8], the binding result is recorded as “binds”.

B9: BC (peptide)
peptide: DLCDVDFCWF
notes: on phage
Regarding B9, the binding result with rabbit serum albumin [1] was “binds”.

B10: HB (peptide)
peptide: RAPESFVCYWETICFERSEQ
notes: on phage; also called Library HB
In the case of B10, the binding result in the assay with human serum albumin [9] was “binds”.

B11: HC (peptide)
peptide: EMCYFPGICWM
notes: on phage; also called Library HC
Consider B11, for which the binding result in the assay with rat serum albumin [8] and in the assay with human serum albumin [9] was “binds” throughout.

B12: HA (peptide)
peptide: EVRSFCTDWPAEKSCKPLRG
notes: on phage; also called Library HA
With B12, in the assay with human serum albumin [9], the binding result was “binds”.

B13: RD (peptide)
peptide: DTCVDLVRLGLECWG
notes: on phage; also called Library RD
In the case of B13, in the assay with rat serum albumin [8], the binding result is given as “binds”.

B14: RC (peptide)
peptide: DLCLRDWGCLW
notes: on phage; also called Library RC
As for B14, the binding result with rat serum albumin [8] is “binds”.

B15: BD (peptide)
peptide: KSCSELHWLLVEECLF
modifications: not fully specified (bridges); cysteine pairing not given here
notes: on phage
In the case of B15, the binding result with rabbit serum albumin [1] is listed as “binds”.
